In patent publication US20090202549A1 (published 2009):

Assays:
Test in all cases: capture assay, relative binding affinity of p40 mAb to p40 muteins (FIG. 4)
[1] = biological target: T1, human p40 single mutant S43R (human, UniProt P29460 23-328)
T1 construct: transiently expressed in HEK293E cells, supernatant used
T1 sequence: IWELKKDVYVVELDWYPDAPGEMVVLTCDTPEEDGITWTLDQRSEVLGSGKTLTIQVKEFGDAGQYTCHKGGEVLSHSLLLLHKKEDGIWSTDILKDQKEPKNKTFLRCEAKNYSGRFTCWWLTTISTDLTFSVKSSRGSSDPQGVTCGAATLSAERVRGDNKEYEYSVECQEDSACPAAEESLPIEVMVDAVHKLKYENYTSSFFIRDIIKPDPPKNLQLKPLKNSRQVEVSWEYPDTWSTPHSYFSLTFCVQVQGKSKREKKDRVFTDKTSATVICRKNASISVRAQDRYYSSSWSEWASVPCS
Procedure: (§1) In brief, MSD high bind plates (Meso Scale Discovery, MD) were coated with 5 μl of a capture monoclonal antibody (5 μg/ml) at room temperature for 1 hour. […] One-hundred and fifty (150) μl of 5% MSD Blocker A buffer was added to each well and incubated for 1 hr at room temperature. Plates were washed three times with 0.1 M HEPES buffer (pH 7.4). These protein-charged ELISA plates were incubated with 25 μl of different transiently expressed p40 mutant supernatants (1:10 dilution with 0.1 M HEPES buffer, pH 7.4) for 1 hr at room temperature. The plates were washed three times with 0.1 M HEPES buffer (pH 7.4). Twenty-five (25) μl of different concentrations of MSD Sulfo-TAG labeled p40 mAb, ranging from 0 to 20 μg/ml, were dispensed to micro-wells. After incubation for 2 hrs shaking at room temperature, plates were washed 3 times with 0.1 M HEPES buffer (pH 7.4). One hundred and fifty (150) μl of diluted MSD Read Buffer T was dispensed into each well and the plates were analyzed with a SECTOR imager (MSD).
(§2) The relative binding affinity of p40 mAb to different mutant proteins was further analyzed by a capture assay. […] The other mutations, M23T, L40T and S43R, in the interface, each reduced binding by approximately 40%. E45A reduced binding by about 70%.

[2] = biological target: T2, human p40 single mutant M23T (human, UniProt P29460 23-328)
T2 construct: transiently expressed in HEK293E cells, supernatant used
T2 sequence: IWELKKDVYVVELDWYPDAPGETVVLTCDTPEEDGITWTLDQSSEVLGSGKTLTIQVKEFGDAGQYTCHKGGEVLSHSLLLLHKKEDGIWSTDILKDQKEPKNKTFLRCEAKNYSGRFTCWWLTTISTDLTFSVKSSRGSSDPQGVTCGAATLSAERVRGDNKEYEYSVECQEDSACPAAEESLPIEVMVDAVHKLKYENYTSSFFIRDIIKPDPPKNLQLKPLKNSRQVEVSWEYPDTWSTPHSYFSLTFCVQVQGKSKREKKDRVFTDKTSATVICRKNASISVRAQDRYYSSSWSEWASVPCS
Procedure: as §1, §2

[3] = biological target: T3, human p40 single mutant L40T (human, UniProt P29460 23-328)
T3 construct: transiently expressed in HEK293E cells, supernatant used
T3 sequence: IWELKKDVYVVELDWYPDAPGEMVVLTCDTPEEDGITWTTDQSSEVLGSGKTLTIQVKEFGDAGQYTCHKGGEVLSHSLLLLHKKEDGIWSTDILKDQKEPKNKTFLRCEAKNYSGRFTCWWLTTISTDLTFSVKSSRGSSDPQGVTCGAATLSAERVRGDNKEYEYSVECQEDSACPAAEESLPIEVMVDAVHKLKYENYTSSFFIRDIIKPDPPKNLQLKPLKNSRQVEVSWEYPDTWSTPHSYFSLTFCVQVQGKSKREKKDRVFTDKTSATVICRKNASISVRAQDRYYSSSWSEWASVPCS
Procedure: as §1, §2

[4] = biological target: T4, human p40 single mutant E45A (human, UniProt P29460 23-328)
T4 construct: transiently expressed in HEK293E cells, supernatant used
T4 sequence: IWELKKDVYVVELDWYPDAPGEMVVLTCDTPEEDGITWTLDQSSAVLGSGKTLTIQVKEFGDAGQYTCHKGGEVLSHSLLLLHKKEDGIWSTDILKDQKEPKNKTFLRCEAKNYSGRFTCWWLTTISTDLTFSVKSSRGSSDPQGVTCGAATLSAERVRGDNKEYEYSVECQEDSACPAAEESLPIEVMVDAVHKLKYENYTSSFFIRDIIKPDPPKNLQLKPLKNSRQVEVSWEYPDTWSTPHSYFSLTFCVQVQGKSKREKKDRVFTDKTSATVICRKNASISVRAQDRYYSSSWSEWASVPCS
Procedure: as §1, §2

B1: p40 mAb (fully human monoclonal antibody directed against the p40 subunit of human IL-12 and IL-23) (antibody, V domains shown)
VH: EVQLVQSGAEVKKPGESLKISCKGSGYSFTTYWLGWVRQMPGKGLDWIGIMSPVDSDIRYSPSFQGQVTMSVDKSITTAYLQWNSLKASDTAMYYCARRRPGQGYFDFWGQGTLVTVSS
VL: DIQMTQSPSSLSASVGDRVTITCRASQGISSWLAWYQQKPEKAPKSLIYAASSLQSGVPSRFSGSGSGTDFTLTISSLQPEDFATYYCQQYNIYPYTFGQGTKLEIKR
notes: Fully human IgG made in a mammalian cell line; also called IL-12 p40 antibody; IL-12p40 antibody
In the case of B1, the “reduction of binding (relative binding affinity)” value [1] is reported as ~40%, the “reduction of binding (relative binding affinity)” value [2] is reported as ~40% and the “reduction of binding (relative binding affinity)” value [3] is reported as ~40%. For the same binder, the “reduction of binding (relative binding affinity)” value [4] was ~70%.
